In the supplement of paper PMC10567573:
± gives the standard deviation.

Assay: protein stability index of a GFP-peptide fusion (GPS, HEK-293T) (PSI 1-6); higher = more stable
[1] = treatment: DMSO, c terminus: a fixed tail appended
[2] = treatment: MLN4924 1 uM, 8 h, c terminus: a fixed tail appended
[3] = treatment: DMSO, c terminus: native
[4] = treatment: MLN4924 1 uM, 8 h, c terminus: native
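Note: 24-mer peptide tiles fused after GFP, lentivirally expressed, FACS-sorted into six equal bins by GFP/DsRed ratio, decoded by Illumina sequencing, PSI is the read-weighted mean bin number.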

Row | Sequence | protein stability index [1] | protein stability index [2] | protein stability index [3] | protein stability index [4]
1 | YLQDHEKKLRLVFKSLDKKNDGRI [SLC25A25] | 3.3 ± 0.13 | 3.43 ± 0.41 |  | 
2 | GTENGAIDAVPVDENLFTGEDLDE [ZC3H15] | 5.7 ± 0.3 | 5.52 ± 0.44 |  | 
3 | HWTSAPLTEASAHSHPPEIKDQGG [MAP2] | 5.14 ± 0.14 | 5.18 ± 0.18 |  | 
4 | ASLLQPVTPLGTSRWRKISAALPY [NCF4] | 2.46 ± 0.4 | 2.61 ± 0.3 |  | 
5 | GLALGGGLELALACDIRVAASSAK [AUH] | 2.67 ± 0.4 | 2.9 ± 0.23 |  | 
6 | KMREFTKTIKRPFGVKYNPYTRSI [TPH1] | 2.25 ± 0.21 | 2.31 ± 0.17 |  | 
7 | GSGAASSSGEDKENDGFVFKMPWK [CDC25B] | 4.025 ± 0.022 | 4.37 ± 0.34 |  | 
8 | WDLRMKLHDRGAQVIHPQEFRRWR [DNAAF3] | 2.77 ± 0.35 | 3.02 ± 0.28 |  | 
9 | FNEQTWEVSQQDPSHGEVGEHKDR [ZSCAN9] | 5.38 ± 0.26 | 5.35 ± 0.17 |  | 
10 | EDTPSDNDSGICMSPESYLGSPQH [ATF4] | 4.66 ± 0.36 | 4.83 ± 0.22 |  | 
11 | SVVTEDGPEPKDKGSLPQPPITEV [ZNF232] | 5.5 ± 0.2 | 5.48 ± 0.18 |  | 
12 | QPTTLVLPPQYVDDVISRIDRMFP [MED27] | 3.67 ± 0.24 | 3.98 ± 0.074 |  | 
13 | FQIYDKEASGYVDRDMFFKICESL [EFHC1] | 2.29 ± 0.15 | 2.5 ± 0.15 |  | 
14 | ERSDPVEQGKPVIPAAVLAGFTGS [ETS2] | 4.59 ± 0.23 | 4.7 ± 0.31 |  | 
15 | DEMYEVRIAAVEALCMLAQSSPSF [INTS4] | 2.69 ± 0.81 | 2.31 ± 0.11 |  | 
16 | LFVNSHPGIDRPGMLCSFRIPGAW [DCAF4] | 2.38 ± 0.59 | 2.24 ± 0.43 |  | 
17 | LVTLNDMKAKQEALVKEREKQLAK [FAM50A] | 4.23 ± 0.24 | 4.25 ± 0.45 |  | 
18 | KTYQETPEIDMFLNVATFLDPRYK [ZBED1] | 2.38 ± 0.36 | 2.56 ± 0.32 |  | 
19 | INQVLLFLLIVTLCVILYKKVHKG [GLT8D2] | 3.12 ± 0.29 | 3.04 ± 0.9 |  | 
20 | QPKPLLLPAAPKTQTISSIPPQT [ATF6] |  |  | 4.73 ± 0.23 | 4.65 ± 0.34
21 | WIKEEAAERYLYFPNWAMALLITL [SLC6A17] | 2.67 ± 0.79 | 2.81 ± 0.57 |  | 
22 | MEKGPVRAPAEKPRGARCSNGFPE [GCH1] | 4.46 ± 0.29 | 4.58 ± 0.25 |  | 
23 | LKLALDMEIATYRKLLESEECRMS [KRT71] | 2.79 ± 0.46 | 2.88 ± 0.24 |  | 

Row | Sequence | protein stability index [1] | protein stability index [2] | protein stability index [3] | protein stability index [4]
24 | ILDTDEYVLKYMESNAAQYSPEAL [EFHC1] | 3.99 ± 0.31 | 3.96 ± 0.38 |  | 
25 | QQDFLGLPEELRRLSGLSSVGHNW [C22orf15] | 2.96 ± 0.21 | 3.11 ± 0.14 |  | 
26 | MSQGPPTGESSEPEAKVLHTKRLY [SMG5] | 4.81 ± 0.24 | 4.94 ± 0.15 |  | 
27 | YHRRHNPKTNEDFEFLYNALEFWR [IQUB] | 1.86 ± 0.36 | 2.61 ± 0.82 |  | 
28 | DETTRSDISERPSVDDIESETGST [C2CD2L] | 5.68 ± 0.1 | 5.6 ± 0.32 |  | 
29 | ALLADEERCLSCILAQQPDRLRDE [TRADD] | 4.28 ± 0.2 | 4.3 ± 0.12 |  | 
30 | ICFKEMLANSWNCLPKHLLHSVNQ [KLHDC2] | 2.73 ± 0.43 | 2.63 ± 0.65 |  | 
31 | LKNSNYESIQQTARSIAEQAHELA [PPTC7] | 3.91 ± 0.54 | 3.78 ± 0.26 |  | 
32 | DFLAVLSDYPSPDISPPIFRRGEK [SLA] | 2.63 ± 0.18 | 2.75 ± 0.51 |  | 
33 | WRKRFRPREHHGRGGMLSASAETL [PPFIA4] | 3.15 ± 0.22 | 3.26 ± 0.056 |  | 
34 | QAQQKKAPAKKANSTTTAGRDHFL [BRD3] | 4.44 ± 0.48 | 4.62 ± 0.15 |  | 
35 | QRKVDGIQKAYDELRLQSEAFKKH [CCDC89] | 4.07 ± 0.19 | 4.21 ± 0.3 |  | 
36 | QYIAQFTSQFLSLQCLQALYVDSL [PRAME] | 3.237 ± 0.011 | 3.47 ± 0.23 |  | 
37 | SEIGTSDQIVPEYQEDSDISSFFC [TRIB1] | 4.39 ± 0.47 | 4.55 ± 0.36 |  | 
38 | MTKTVQYQNELHKFLIWDTAGQER [RAB22A] | 3.03 ± 0.23 | 3.14 ± 0.17 |  | 
39 | DFHKPFLGGFRHKVTGVEYHNAGT [IQUB] | 2.88 ± 0.32 | 2.88 ± 0.16 |  | 
40 | HLALHAASSGDLTCGVCALELGST [PLAGL1] | 3.01 ± 0.48 | 2.93 ± 0.24 |  | 
41 | VDFQCVKSKSITNLAAAAADIPQD [BTBD10] | 4.79 ± 0.28 | 4.8 ± 0.11 |  | 
42 | QEGSSGMELSWGQSPGQPVQGGSE [TEX19] | 5.28 ± 0.26 | 5.29 ± 0.51 |  | 
43 | CEDQKQIKKPESFSKQIVLRGKSI [NEUROD6] | 4.7 ± 0.21 | 4.61 ± 0.21 |  | 
44 | KMGLQERSETFLEVWGNALLRPPV [DNAAF3] | 2.52 ± 0.55 | 2.49 ± 0.34 |  | 
45 | PQSPPSCRAPPPEARGIRAPPLPD [FCHO1] | 4.92 ± 0.12 | 5.09 ± 0.24 |  | 
46 | ARPTEVLAGTQLLYAFFTRTHGDM [TRIB3] | 2.43 ± 0.45 | 2.33 ± 0.38 |  | 

Row | Sequence | protein stability index [1] | protein stability index [2] | protein stability index [3] | protein stability index [4]
47 | NFGLRLVVQRCSGQKWMIRNWIKH [GALNT9] | 2.67 ± 0.32 | 2.06 ± 0.59 |  | 
48 | RNWALKESFIKAIGVGLGFELQRL [AASDHPPT] | 3 ± 0.54 | 2.63 ± 0.52 |  | 
49 | TGFPQYAQLYEDFLFPIDISLVKR [DLC1] | 2.37 ± 0.24 | 2.35 ± 0.54 |  | 
50 | LGDEICCWSFYGQGRKIAEVCCTS [KCTD13] | 2.15 ± 0.1 | 2.1 ± 0.29 |  | 
51 | MAPLQPSTSRAHKLPSRRQPGLLH [FAM189A2] | 3.62 ± 0.18 | 3.72 ± 0.28 |  | 
52 | RRVGILGEELADVGGVLRGLNHSL [SCARA5] | 2.9 ± 0.095 | 2.94 ± 0.3 |  | 
53 | ELSSVHPPHYFFTYRIRIEMSKDA [FBXO3] | 2.15 ± 0.21 | 2.18 ± 0.42 |  | 
54 | ADGLLQLGPLGSTAFLPDSKCLVD [GALNT9] | 3.97 ± 0.16 | 4.09 ± 0.19 |  | 
55 | GACIVNSENKIVGIGYNGMPNGCS [DCTD] | 3.04 ± 0.33 | 3.21 ± 0.43 |  | 
56 | DRLWRPSKVLSLQDLCCRAVVSCT [RAB40B] | 3.01 ± 0.17 | 2.8 ± 0.21 |  | 
57 | QIPVTDSGRHILEDSCAELGESKE [SDE2] | 5.35 ± 0.12 | 5.19 ± 0.38 |  | 
58 | KAENARLVVNIDNAKLASDDFRSK [KRT34] | 4.62 ± 0.16 | 4.71 ± 0.14 |  | 
59 | FAKKLVDRTWTLCGTPEYLAPEVI [PRKX] | 2.63 ± 0.8 | 2.29 ± 0.19 |  | 
60 | LSPDIMKDAYVQKLVKVCNGHDCW [TENT5D] | 2.41 ± 0.72 | 2.35 ± 0.17 |  | 
61 | HWKTWLAIKCSPSLHVDDRERMEL [RIPK4] | 2.38 ± 0.26 | 2.53 ± 0.58 |  | 
62 | PFNQSTFNNVVEQNFKNRESYPED [DLC1] | 4.62 ± 0.14 | 4.66 ± 0.16 |  | 
63 | SSLSSESSESSDAGLCMDSPSPMD [CDC25B] | 5.462 ± 0.013 | 5.37 ± 0.23 |  | 
64 | NGNGKNGGLEHVPSSSSIHNGDME [BNIP3L] | 5.28 ± 0.2 | 5.28 ± 0.24 |  | 
65 | ALVGCVISDNPERYSTNLSNHVDD [EDNRA] | 3.94 ± 0.44 | 4.16 ± 0.16 |  | 
66 | TRRLRLAHVGMELQLKQELAMLNA [SCARA5] | 2.65 ± 0.23 | 2.55 ± 0.22 |  | 
67 | LPSLRTVSSSVIEQLFFVRLVGKT [NR2F2] | 2.44 ± 0.37 | 2.28 ± 0.071 |  | 
68 | CLTTGDVIAINYNEKIYELRVMET [UFD1] | 2.25 ± 0.35 | 2.04 ± 0.27 |  | 
69 | KEQLSNDRETQEGKPPTAHLDRTS [ELOA2] | 5.56 ± 0.32 | 5.59 ± 0.16 |  | 

Row | Sequence | protein stability index [1] | protein stability index [2] | protein stability index [3] | protein stability index [4]
70 | LASIFQLAMWTTALLHQAETLQPS [TMEM175] | 3.13 ± 0.29 | 3.13 ± 0.75 |  | 
71 | RLYVDKSLNLSTEFISSTKRPYAK [SERPINB5] | 3.41 ± 0.76 | 3.46 ± 0.5 |  | 
72 | MPEFSSDSTMRILSNLVQHILKKY [RTP4] | 2.2 ± 0.39 | 2.52 ± 0.31 |  | 
73 | RAQLPKYQRNLPRPGQAPIGNPPV [ZNF207] | 3.75 ± 0.26 | 3.79 ± 0.14 |  | 
74 | QPPPPPPPPPMQPTVPSAATSQPT [CCDC6] | 5.11 ± 0.16 | 5.29 ± 0.062 |  | 
75 | DSQAPAGSLDLVPGGLTLEEHSLE [SPDEF] | 5.36 ± 0.21 | 5.45 ± 0.33 |  | 
76 | TLEALGYKGPLLEEQALTKAAEGG [FAM98B] | 4.61 ± 0.23 | 4.66 ± 0.083 |  | 
77 | MNAVGSPEGQELQKLGSGAWDNPA [PKD2L1] | 4.59 ± 0.2 | 4.35 ± 0.27 |  | 
78 | GRDGYDYDGYRLRVEFPRSGRGTG [SRSF1] | 3.17 ± 0.37 | 3.26 ± 0.36 |  | 
79 | RKPCKLMLQVVKILVVTVQLILFG [MCOLN1] | 2.44 ± 0.33 | 2.47 ± 0.32 |  | 
80 | EYECRRRMLMKRLDVTVQSFGWSD [FAM98B] | 2.48 ± 0.14 | 2.45 ± 0.11 |  | 
81 | LFLLLGHGASPGLRDGGGLTPLEL [ANKRD9] | 2.29 ± 0.32 | 2.36 ± 0.59 |  | 
82 | REPAGRWKEGRPRVEESGSKKEGK [PBXIP1] | 5.34 ± 0.21 | 5.36 ± 0.21 |  | 
83 | DIEDVFYKYGAIRDIDLKNRRGGP [SRSF1] | 3.32 ± 0.48 | 3.39 ± 0.17 |  | 
84 | DTFHQDNQPSGLIRTYLGRSPLVS [RHOBTB3] | 3.24 ± 0.1 | 3.24 ± 0.16 |  | 
85 | VQDWYHFHYVDILALLPAAWEDSH [SCNN1D] | 2.77 ± 0.61 | 2.67 ± 0.67 |  | 
86 | MASCPDSDNSWVLAGSESLPVETL [PBXIP1] | 4.31 ± 0.27 | 4.41 ± 0.22 |  | 
87 | NPYYDPLQWKSSHFERRDNMNDNF [CHGB] | 3.27 ± 0.1 | 3.14 ± 0.23 |  | 
88 | GKRPSQEEDTQSIGPKVQRQSTN [CRY1] |  |  | 5.35 ± 0.28 | 5.45 ± 0.11
89 | LLKHSNIVRLHDSISEEGFHYLVF [CAMK2B] | 2.68 ± 0.46 | 2.42 ± 0.37 |  | 
